{"source": "paper PMC3019263", "about": "(Archives of biochemistry and biophysics, 2010)", "proteins": {"B1": {"name": "PheH117, the regulatory domain of rat phenylalanine hydroxylase, lacking residues after Thr117 (domain or fragment, UniProt P04176 1-117, looked up)", "chain": "MAAVVLENGVLSRKLSDFGQETSYIEDNSNQNGAISLIFSLKEEVGALAKVLRLFEENDINLTHIESRPSRLNKDEYEFFTYLDKRTKPVLGSIIKSLRNDIGATVHELSRDKEKNT"}}, "target": "the molecule itself", "experiment": "SEC", "data": [{"protein": "B1", "values": [{"measurement": "stoichiometry N", "value": 2}]}]}
